Measurements from US20200165325A1.

How the values were obtained:
[1] = target: HIV-1 Env of strain T255-34 (HIV-1)
[2] = target: HIV-1 Env of strain HIV-16845-2.22 (HIV-1)
[3] = target: HIV-1 Env of strain 6811.v7.c18 (HIV-1)
[4] = target: HIV-1 Env of strain 620345.c01 (HIV-1)
[5] = target: HIV-1 Env of strain Q461.e2 (HIV-1)
[6] = target: HIV-1 Env of strain Ce1176_A3 (HIV-1)
[7] = target: HIV-1 Env of strain 211-9 (HIV-1)
[8] = target: HIV-1 Env of strain ZM249M.PL1 (HIV-1)
[9] = target: HIV-1 Env of strain 89-F1_2_25 (HIV-1)
[10] = target: HIV-1 Env of strain THRO4156.18 (HIV-1)
[11] = target: HIV-1 Env of strain Du172.17 (HIV-1)
[12] = target: HIV-1 Env of strain ZM247v1(Rev-) (HIV-1)
[13] = target: HIV-1 Env of strain 6480.v4.c25 (HIV-1)
[14] = target: HIV-1 Env of strain R1166.c01 (HIV-1)
[15] = target: HIV-1 Env of strain CAP210.2.00.E8 (HIV-1)
[16] = target: HIV-1 Env of strain QH0692.42 (HIV-1)
[17] = target: HIV-1 Env of strain WEAU_d15_410_787 (HIV-1)
[18] = target: HIV-1 Env of strain Ce703010054_2A2 (HIV-1)
[19] = target: HIV-1 Env of strain AC10.0.29 (HIV-1)
[20] = target: HIV-1 Env of strain R2184.c04 (HIV-1)
[21] = target: HIV-1 Env of strain 3301.v1.c24 (HIV-1)
[22] = target: HIV-1 Env of strain 1006_11_C3_1601 (HIV-1)
[23] = target: HIV-1 Env of strain CNE21 (HIV-1)
[24] = target: HIV-1 Env of strain 1054_07_TC4_1499 (HIV-1)
[25] = target: HIV-1 Env of strain CNE20 (HIV-1)
[26] = target: HIV-1 Env of strain ZM53M.PB12 (HIV-1)
[27] = target: HIV-1 Env of strain 231965.c01 (HIV-1)
[28] = target: HIV-1 Env of strain ZM233M.PB6 (HIV-1)
[29] = target: HIV-1 Env of strain 0330.v4.c3 (HIV-1)
[30] = target: HIV-1 Env of strain P1981_C5_3 (HIV-1)
[31] = target: HIV-1 Env of strain 6540.v4.c1 (HIV-1)
[32] = target: HIV-1 Env of strain RHPA4259.7 (HIV-1)
[33] = target: HIV-1 Env of strain 0815.v3.c3 (HIV-1)
[34] = target: HIV-1 Env of strain Q23.17 (HIV-1)
[35] = target: HIV-1 Env of strain 3415.v1.c1 (HIV-1)
[36] = target: HIV-1 Env of strain Du422.1 (HIV-1)
[37] = target: HIV-1 Env of strain Ce0393_C3 (HIV-1)
[38] = target: HIV-1 Env of strain 6535.3 (HIV-1)
[39] = target: HIV-1 Env of strain T257-31 (HIV-1)
[40] = target: HIV-1 Env of strain P0402_c2_11 (HIV-1)
[41] = target: HIV-1 Env of strain 928-28 (HIV-1)
[42] = target: HIV-1 Env of strain TRO.11 (HIV-1)
[43] = target: HIV-1 Env of strain 3103.v3.c10 (HIV-1)
[44] = target: HIV-1 Env of strain SC422661.8 (HIV-1)
[45] = target: HIV-1 Env of strain ZM135M.PL10a (HIV-1)
[46] = target: HIV-1 Env of strain 703357.C02 (HIV-1)
[47] = target: HIV-1 Env of strain CAP45.2.00.G3 (HIV-1)
[48] = target: HIV-1 Env of strain T278-50 (HIV-1)
[49] = target: HIV-1 Env of strain REJO4541.67 (HIV-1)
[50] = target: HIV-1 Env of strain Q259.d2.17 (HIV-1)
[51] = target: HIV-1 Env of strain Q769.d22 (HIV-1)
[52] = target: HIV-1 Env of strain Ce2060_G9 (HIV-1)
[53] = target: HIV-1 Env of strain 62357_14_D3_4589 (HIV-1)
[54] = target: HIV-1 Env of strain C3347.c11 (HIV-1)
[55] = target: HIV-1 Env of strain 3016.v5.c45 (HIV-1)
[56] = target: HIV-1 Env of strain 3718.v3.c11 (HIV-1)
[57] = target: HIV-1 Env of strain T250-4 (HIV-1)

NIH45-46 G54F IgG (antibody)
In vitro neutralization IC80 [1]: 0.198 µg/mL | In vitro neutralization IC80 [2]: 2.75 µg/mL | In vitro neutralization IC80 [3]: 0.063 µg/mL | In vitro neutralization IC80 [4]: > 50 µg/mL | In vitro neutralization IC80 [5]: 0.135 µg/mL | In vitro neutralization IC80 [6]: 0.83 µg/mL | In vitro neutralization IC80 [7]: > 50 µg/mL | In vitro neutralization IC80 [8]: 0.016 µg/mL | In vitro neutralization IC80 [9]: > 50 µg/mL | In vitro neutralization IC80 [10]: 3.01 µg/mL | In vitro neutralization IC80 [11]: > 50 µg/mL | In vitro neutralization IC80 [12]: 2.45 µg/mL | In vitro neutralization IC80 [13]: 0.046 µg/mL | In vitro neutralization IC80 [14]: 1.32 µg/mL | In vitro neutralization IC80 [15]: > 50 µg/mL | In vitro neutralization IC80 [16]: 1.65 µg/mL | In vitro neutralization IC80 [17]: 4 ng/mL | In vitro neutralization IC80 [18]: 0.07 µg/mL | In vitro neutralization IC80 [19]: 1.12 µg/mL | In vitro neutralization IC80 [20]: 0.054 µg/mL | In vitro neutralization IC80 [21]: 0.011 µg/mL | In vitro neutralization IC80 [22]: 0.024 µg/mL | In vitro neutralization IC80 [23]: 0.66 µg/mL | In vitro neutralization IC80 [24]: 0.283 µg/mL | In vitro neutralization IC80 [25]: 3.91 µg/mL | In vitro neutralization IC80 [26]: 0.23 µg/mL | In vitro neutralization IC80 [27]: 0.062 µg/mL | In vitro neutralization IC80 [28]: 0.99 µg/mL | In vitro neutralization IC80 [29]: 0.13 µg/mL | In vitro neutralization IC80 [30]: 0.11 µg/mL | In vitro neutralization IC80 [31]: > 50 µg/mL | In vitro neutralization IC80 [32]: 0.02 µg/mL | In vitro neutralization IC80 [33]: 0.014 µg/mL | In vitro neutralization IC80 [34]: 0.07 µg/mL | In vitro neutralization IC80 [35]: 0.029 µg/mL | In vitro neutralization IC80 [36]: > 50 µg/mL | In vitro neutralization IC80 [37]: 0.173 µg/mL | In vitro neutralization IC80 [38]: 0.27 µg/mL | In vitro neutralization IC80 [39]: 0.51 µg/mL | In vitro neutralization IC80 [40]: 0.047 µg/mL | In vitro neutralization IC80 [41]: 0.41 µg/mL | In vitro neutralization IC80 [42]: 0.3 µg/mL | In vitro neutralization IC80 [43]: 1.28 µg/mL | In vitro neutralization IC80 [44]: 0.1 µg/mL | In vitro neutralization IC80 [45]: 0.43 µg/mL | In vitro neutralization IC80 [46]: > 50 µg/mL | In vitro neutralization IC80 [47]: > 50 µg/mL | In vitro neutralization IC80 [48]: > 50 µg/mL | In vitro neutralization IC80 [49]: 0.028 µg/mL | In vitro neutralization IC80 [50]: 0.036 µg/mL | In vitro neutralization IC80 [51]: 0.023 µg/mL | In vitro neutralization IC80 [52]: 0.085 µg/mL | In vitro neutralization IC80 [53]: 0.14 µg/mL | In vitro neutralization IC80 [54]: 0.059 µg/mL | In vitro neutralization IC80 [55]: 37 µg/mL | In vitro neutralization IC80 [56]: 4.62 µg/mL | In vitro neutralization IC80 [57]: > 50 µg/mL
